Tests used:
SARS-CoV-1 RBD = SARS-CoV-1 RBD (SARS-CoV-1 (SARS-CoV), Urbani, UniProt P59594, biotinylated with an EZ-Link NHS-PEG4 biotinylation kit); assay: BLI
SARS-CoV-2 RBD = SARS-CoV-2 RBD (SARS-CoV-2, Wuhan-Hu-1, UniProt P0DTC2, biotinylated with an EZ-Link NHS-PEG4 biotinylation kit); assay: BLI

| Binder | binding result (SARS-CoV-1 RBD) | fold weaker binding than to SARS-CoV-1 RBD (SARS-CoV-2 RBD) [fold] |
| --- | --- | --- |
| VHH-72 (VHH) VHH: QVQLQESGGGLVQAGGSLRLSCAASGRTFSEYAMGWFRQAPGKEREFVATISWSGGSTYYTDSVKGRFTISRDNAKNTVYLQMNSLKPDDTAVYYCAAAGLGTVVSEWDYDYDYWGQGTQVTVSS | binds | > 5 |
| Seq4 (VHH) VHH: QVQLQESGGGLVQAGGSLRLSCAASGRSFSEYAMGWFRQAPGKEREFVATISWSGRATYYTDSVKGRFTISRDNAKNTVYLQMNSLKPDDTAVYYCARAGYGVVVSEWDYDYDYWGQGTQVTVSS | binds |  |
| Seq2 (VHH) VHH: QVQLQESGGGLVQAGGSLRLSCAASGRGFSEYAMGWFRQAPGKEREFVATISWSGGGTYYTDSVKGRFTISRDNAKNTVYLQMNSLKPDDTAVYYCARAGFGVWVSEWDYDYDYWGQGTQVTVSS | binds |  |
| Seq6 (VHH) VHH: QVQLQESGGGLVQAGGSLRLSCAASGRLFSEYAMGWFRQAPGKEREFVATISWSGRSTYYTDSVKGRFTISRDNAKNTVYLQMNSLKPDDTAVYYCAKAGWGVVVSEWDYDYDYWGQGTQVTVSS | binds |  |
| Seq7 (VHH) VHH: QVQLQESGGGLVQAGGSLRLSCAASGLKFSETAMGWFRQAPGKEREFVATISWSGRSTYYTDSVKGRFTISRDNAKNTVYLQMNSLKPDDTAVYYCARAGYGVVVSEWDYDYDYWGQGTQVTVSS | binds |  |
| Seq3 (VHH) VHH: QVQLQESGGGLVQAGGSLRLSCAASGRMFSETAMGWFRQAPGKEREFVATISWSGRGTYYTDSVKGRFTISRDNAKNTVYLQMNSLKPDDTAVYYCAGAGYGVYVSEWDYDYDYWGQGTQVTVSS | binds |  |
| Seq5 (VHH) VHH: QVQLQESGGGLVQAGGSLRLSCAASGRMFSEYAMGWFRQAPGKEREFVATISWSGKGTYYTDSVKGRFTISRDNAKNTVYLQMNSLKPDDTAVYYCARAGFGVYVSEWDYDYDYWGQGTQVTVSS | binds |  |
| Seq8 (VHH) VHH: QVQLQESGGGLVQAGGSLRLSCAASGYGFSEYAMGWFRQAPGKEREFVATISWSGRSTYYTDSVKGRFTISRDNAKNTVYLQMNSLKPDDTAVYYCARAGWGVVVSEWDYDYDYWGQGTQVTVSS | binds |  |
| Seq11 (VHH) VHH: QVQLQESGGGLVQAGGSLRLSCAASGRKFSEYAMGWFRQAPGKEREFVATISWSGRLTYYTDSVKGRFTISRDNAKNTVYLQMNSLKPDDTAVYYCAGAGYGVVVSEWDYDYDYWGQGTQVTVSS | binds |  |
| Seq1 (VHH) VHH: QVQLQESGGGLVQAGGSLRLSCAASGRTFSETAMGWFRQAPGKEREFVATISWSGRGTYYTDSVKGRFTISRDNAKNTVYLQMNSLKPDDTAVYYCAYAGYGVVVSEWDYDYDYWGQGTQVTVSS | binds |  |

Reference: paper doi:10.1101/2023.12.01.569227 (bioRxiv, 2023)
